The target in assay [1] is T1, Human Alix recombinant construct ALIX(V+PRR), residues 362-760 (human, UniProt Q8WUM4 362-760).
T1 sequence (looked up): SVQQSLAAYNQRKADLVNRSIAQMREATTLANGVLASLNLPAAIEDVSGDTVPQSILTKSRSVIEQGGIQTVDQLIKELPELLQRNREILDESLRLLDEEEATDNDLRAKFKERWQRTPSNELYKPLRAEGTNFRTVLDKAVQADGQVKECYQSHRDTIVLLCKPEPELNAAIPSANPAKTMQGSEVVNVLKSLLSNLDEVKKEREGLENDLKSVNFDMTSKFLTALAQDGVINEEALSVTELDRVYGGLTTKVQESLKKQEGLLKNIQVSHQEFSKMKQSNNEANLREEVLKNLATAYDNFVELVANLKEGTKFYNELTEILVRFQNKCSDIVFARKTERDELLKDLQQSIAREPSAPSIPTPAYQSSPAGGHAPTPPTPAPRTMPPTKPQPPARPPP
Briefly: NMR titration.

The target in assay [2] is T1, Human Alix recombinant construct …. The assay can be described thus: pull-down.

B1: Fyn(R96I)-SH3, 6xHis C-terminal fusion (domain or fragment)
chain: not shown
On to B1, for which, in assay [1], the binding result is “binds”.

B2: Fyn(R96I)-SH3-GST (domain or fragment)
chain: not shown
As to B2, the binding result in assay [2] is given as “binds”.

B3: Hck-SH3-GST (domain or fragment)
chain: not shown
For the molecule B3, the binding result in assay [2] is given as “binds”.

For the origin of these results see paper PMC3378324 (Febs Letters, 2012).
